Test results reported in US20070196376A1.

Key:
mouse insulin (mouse) = experiment: ELISA on mouse insulin; No Ag well 0.10
rat insulin (rat) = experiment: ELISA on rat insulin; No Ag well 0.10

mouse insulin (mouse), sequence (P01308 whole entry): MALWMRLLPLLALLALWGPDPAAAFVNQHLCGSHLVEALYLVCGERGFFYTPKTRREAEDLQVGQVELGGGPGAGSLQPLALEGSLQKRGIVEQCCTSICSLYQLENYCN

Substance: positive control anti-rat insulin antibody
- OD 450 (mouse insulin (mouse)): 2.52 OD 450
- OD 450 (rat insulin (rat)): 3.06 OD 450
